Here are results for 31 sequences from the supplement of paper PMC9170038.

This data set has as its system MS2 coat protein. Briefly: apparent KD of MS2 coat protein; designed switch direction (-1 OFF switch, 1 ON switch): -1; higher = weaker reporter binding. In short, it runs like this:
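An oligonucleotide input, 200 uM small-molecule ligand, or no input was present during titration of SNAP-549-labelled MS2 coat protein, which was doubled from 0.7 or 1.5 nM to 3 µM. Designed RNA switches had been transcribed on Illumina chips by stalled E. coli RNA polymerase. Apparent KD per design is the median over clusters of curves fitted to normalised cluster fluorescence.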

Setting [1] is: Eterna round: R95, input ligand: FMN 200 uM.
The mark [2] stands for this setting: Eterna round: R95, input ligand: microRNA oligo, concentration not stated.
[3] abbreviates: Eterna round: R95, input ligand: none.
Where [4] appears, read: input ligand: microRNA oligo, concentration not stated.

“UAGGCGUAAGGAUAUAUCUUUGGACGAGCGAGGGACCAGAGAUAGAAGGUACAUGAGGAUCACCCAUGUGGGUC [Eternabot (L1) Solution 41] (Eterna round: R97, puzzle: Exclusion 4)”: the “apparent KD of MS2 coat protein” value is 189 nM (input ligand: FMN 200 uM) and 64.9 nM (input ligand: none).

In the case of “AGUAGGUCUACCUUGGUGGAUCUGCAUUUAUGCAGGUGAACAUGAGGAUCACCCAUGUCCUCAUUUGCUCGUCUUAU [JL turnoff v2 99.28] (puzzle: Sensor v3, turn-off variant 2)”, the “apparent KD of MS2 coat protein” value is 55.3 nM under setting [1], 539 nM under setting [2] and 61.5 nM under setting [3].

With “UAAAUGUGAGGAUAUUCGAUGAACACGGAGACGUGUUUAUCGGAGAAGGCACAUGAGGAUCACCCAUGUUCCUU [Mat - Exclusion 4 - JL Mod - D5] (Eterna round: R97, puzzle: Exclusion 4)”, the “apparent KD of MS2 coat protein” value is, setting by setting: (input ligand: FMN 200 uM) 216 nM; (input ligand: none) 24.7 nM.

Consider “CAGUACUGAGGAUAUACAUGAGGAUCACCCAUGUGUGUGAAAUUUAUGUGGUCGUAAUGUAGAAGGCAGUACUG [JR_Ex3_Sub028] (Eterna round: R97, puzzle: Exclusion 3)”, for which the “apparent KD of MS2 coat protein” value by setting is: (input ligand: FMN 200 uM) 30.5 nM; (input ligand: none) 62.9 nM.

For “GGUCUGCGAGGAUAUACAUGAGGAUCACCCAUGUGCGUGAUACUAGUGAGGUCGGUUGGUAGAAGGCGCGGACG [JL-ex3-2.08 salish99 mod] (puzzle: Exclusion 3)”, the “apparent KD of MS2 coat protein” value reads like this: under setting [1], 128 nM; under setting [2], 245 nM; under setting [3], 649 nM.

Consider “CCCGUACAUGAGGAUCACCCAUGUCAGGAUAUCUAAUCAUGCUGUAAGGCACAUUGAGGGAGAAGGGACAUAUU [EX1 B.29] (Eterna round: R97, puzzle: Exclusion 1)”, for which the “apparent KD of MS2 coat protein” value stood at 32.4 nM (input ligand: FMN 200 uM) and 20.8 nM (input ligand: none).

As for “GUGUAAGGAGGAUAUACAUGAGGAUCACCCAUGUGAAUAAGAUAGAAUAAGAUAAAGUGUAGAAGGCUUAGUGU [Excluse me!!! 25 - Jieux - Exclusion 3] (puzzle: Exclusion 3)”, the “apparent KD of MS2 coat protein” value worked out at 39 nM under setting [1], 38.6 nM under setting [2] and 44.7 nM under setting [3].

As to “CUAAAUCAUGUAGGAUAUGCGUGGCAAAGCUAUGCAGAAGGACAUGAGGAUCACCCAUGUCAUUCCGUCUGGAGACAGACGGGA [Mat - Exclusion NG 1 - Mod of JL - D54] (Eterna round: R96, puzzle: Exclusion NG 1)”, the “apparent KD of MS2 coat protein” value is, setting by setting: (input ligand: FMN 200 uM) 182 nM; under setting [4], 20.7 nM; (input ligand: none) 25 nM.

Turning to “ACAUGUAAUGCAGGAUAUCUGACACAUGAGGAUCACCCAUGUGACCAGAGGAAUUGCUAAGAGUCGGAGAAGGGUAUGUACAUG [Ex NG2 #53] (Eterna round: R96, puzzle: Exclusion NG 2)”, the “apparent KD of MS2 coat protein” value by setting is: (input ligand: FMN 200 uM) 19.4 nM; under setting [4], 12.8 nM; (input ligand: none) 19.7 nM.

In the case of “UAUUUAUAGCAAGGAUAUGAUUAUUAUUAUUUAUCAGAAGGUGCACAUGAGGAUCACCCAUGUUUUAUAAUUUGUAAUUUAAUU [Title] (Eterna round: R96, puzzle: Exclusion NG 1)”, under setting [4], the “apparent KD of MS2 coat protein” value worked out at 40.9 nM.

As to “ACGUACUCUGUAGGAUAUCGAUGAUGCAUGAUUCGAGAAGGACAUGAGGAUCACCCAUGUUUCAAAAGCAUACUAUGUGUAGUA [Design #2] (Eterna round: R96, puzzle: Exclusion NG 1)”, the “apparent KD of MS2 coat protein” value runs as follows: (input ligand: FMN 200 uM) 44.4 nM; under setting [4], 13.6 nM; (input ligand: none) 20.9 nM.

For “UCACCGCAAGGAUAUACUUGCGGUGAUGUUCGAAUCUUUCUACUUGAGGAUCACCCAAGUAGAAGGUGCGGUGA [jl-ex2.4.69 ViennaUCT mod] (Eterna round: R97, puzzle: Exclusion 2)”, the “apparent KD of MS2 coat protein” value (input ligand: FMN 200 uM) is 15.4 nM and the “apparent KD of MS2 coat protein” value (input ligand: none) was found to be 12.2 nM.

On to “AAUAAGCUAGGAUAUACAUGAGGAUCACCCAUGUCCACGCUCUGGAGGGCUGAAUGAUGUAGAAGGAGCAGUGG [Zabier] (puzzle: Exclusion 3)”, for which the “apparent KD of MS2 coat protein” value is 17.2 nM under setting [1], 19.2 nM under setting [2] and 13.9 nM under setting [3].

Consider “CAUACUCAAGUCAGGAUAUAGAGUCGGAUACGGAUCUAGAAGGGACAUGAGGAUCACCCAUGUAGAGAGUAAAG [EX-4 Malc #25] (puzzle: Brourd's mod of Exclusion 4)”, for which the “apparent KD of MS2 coat protein” value under setting [1] was determined as 88 nM, the “apparent KD of MS2 coat protein” value under setting [2] worked out at 38 nM and the “apparent KD of MS2 coat protein” value under setting [3] worked out at 21.1 nM.

Consider “AAAGUGUGAGGAUAUCCGGGACUGGGCCGGGAGGUUCGGAAGGAGAAGGCACAUGAGGAUCACCCAUGUAACGG [Excls4-X] (puzzle: Exclusion 4)”, for which the “apparent KD of MS2 coat protein” value under setting [2] was found to be 46.9 nM.

“UGCAUGUGAGGAUAUGUACCUGAGUGCUUUGCGCUCAGGAAACAGAAGGCACAUGAGGAUCACCCAUGUGAAAA [jl-ex4-4.46 ViennaUCT mod] (Eterna round: R97, puzzle: Exclusion 4)”: the “apparent KD of MS2 coat protein” value reads like this: (input ligand: FMN 200 uM) 74.1 nM; (input ligand: none) 208 nM.

Regarding “UUAAAUCAUGUAGGAUAUGCGUGGCGAAGCUAUGCAGAAGGACAUGAGGAUCACCCAUGUUCUAGCGUCUGCGUACAGAUGCAA [JL ENG1 1.10] (Eterna round: R96, puzzle: Exclusion NG 1)”, the “apparent KD of MS2 coat protein” value is, setting by setting: (input ligand: FMN 200 uM) 93.1 nM; under setting [4], 17.5 nM; (input ligand: none) 17.5 nM.

With “AAAUGGGCGUAGGAUAUGAGAUGGUCUAGCAGCUCAGAAGGACGCACAUGAGGAUCACCCAUGUGAUCGGACUA [Celebidi] (puzzle: Exclusion 6)”, the “apparent KD of MS2 coat protein” value under setting [2] came to 29.7 nM.

Take “UUUAAUUUUUUUUUUUUACAAGCUUUUUGCUCGUCUUAUACAUGAGGAUCACCCAUGUGAGUGGAAGGUAAAUUAUC [JMF 69] (puzzle: Sensor v3, turn-off variant 2)”: the “apparent KD of MS2 coat protein” value came out at 12.6 nM under setting [1], 18 nM under setting [2] and 11.8 nM under setting [3].

Consider “UCAUACGGUGAGGAUAUCUCCGCUAAAGUGUGUAGAGAAGGCGCUACAUGAGGAUCACCCAUGUUUGUGGGCAG [Ex-6 Malc#11] (puzzle: Exclusion 6)”, for which, under setting [2], the “apparent KD of MS2 coat protein” value was found to be 421 nM.

Take “CUAGUGUAAGGAUAUGCCUGGCCGUGAGGCCAGAUUGAAUAGCAGAAGGUACAUGAGGAUCACCCAUGUACGGG [jl-ex4-4.62 ViennaUCT mod] (Eterna round: R97, puzzle: Exclusion 4)”: the “apparent KD of MS2 coat protein” value is, setting by setting: (input ligand: FMN 200 uM) 279 nM; (input ligand: none) 26.4 nM.

Regarding “AGCGCCAUCGUGAGAUGGCGUAUUACAUGAGGAUCACCCAUGUAGGAUAUCGAUUGCUUUGCAGUCGAGAAGGACAUGUUCUUC [JL ENG3 3.80 Mod C] (Eterna round: R96, puzzle: Exclusion NG 3)”, the “apparent KD of MS2 coat protein” value turned out to be 66 nM (input ligand: FMN 200 uM), 16 nM under setting [4] and 23.2 nM (input ligand: none).

In the case of “GGUGGACAUGAGGAUCACCCAUGUGAGGAUAUCGGCUAUCUUCUCGCUGUCGGUUGCUCGAGAAGGCACAUUGU [Exclusion 1 V94] (Eterna round: R96, puzzle: Exclusion 1)”, the “apparent KD of MS2 coat protein” value reads like this: (input ligand: FMN 200 uM) 112 nM; under setting [4], 50.1 nM; (input ligand: none) 64.9 nM.

On to “GAAAGGUAAGGAUAUGCGACUACGGUGAGAUGGUUGACCUGACAUGAGGAUCACCCAUGUAGAAGGUGCUCAAU [Eternabot (L2) Solution 33] (Eterna round: R97, puzzle: Exclusion 2)”, for which the “apparent KD of MS2 coat protein” value (input ligand: FMN 200 uM) was 67.8 nM and the “apparent KD of MS2 coat protein” value (input ligand: none) is 64.2 nM.

With “UAUUAGCAAGUAAGAUCCCACAUGAGGAUCACCCAUGUGCUCGUCAUAUCAGGUACGGAGCGGAAACUCCCGAUAUG [Sensor-V1 #89] (Eterna round: R97, puzzle: Sensor, turn-off variant 1)”, the “apparent KD of MS2 coat protein” value (input ligand: FMN 200 uM) came to 106 nM and the “apparent KD of MS2 coat protein” value (input ligand: none) came to 95.9 nM.

With “CCUAUGUGAGGAUAUGUCUGGUCUUCUUUUGUUUUUUACAGACAGAAGGCACAUGAGGAUCACCCAUGUCAGAC [Ex4 - 3 - 47] (puzzle: Exclusion 4)”, under setting [2], the “apparent KD of MS2 coat protein” value amounted to 17 nM.

Regarding “GUCACAUGGACAUAGGAUCACAUGAGGAUCACCCAUGUGACUAACAAGCUUUUUGCUCGUCUUAUGUCCAUGUGAAG [Stov1/15-A1] (Eterna round: R97, puzzle: Sensor, turn-off variant 1)”, the “apparent KD of MS2 coat protein” value by setting is: (input ligand: FMN 200 uM) 13.2 nM; (input ligand: none) 11.7 nM.

For the sequence “GCCCAGCUAGGAUAUCGCACUGCAGACAUGAGGAUCACCCAUGUGAUGAGGUCUGAAUUCCGAGAAGGAGCAUGGA [Isedzaqu] (puzzle: Exclusion 5)”, the “apparent KD of MS2 coat protein” value is 66.6 nM under setting [1], 22.1 nM under setting [2] and 26.7 nM under setting [3].

With “AAUAACGAGCCGAUCCUCCACAUGAGGAUCACCCAUGUGUUCGUCUUGUAAAGUACUAUCACGAAAGUGAUAGUACA [mod jandersonlee] (Eterna round: R97, puzzle: Sensor, turn-off variant 1)”, the “apparent KD of MS2 coat protein” value by setting is: (input ligand: FMN 200 uM) 1100 nM; (input ligand: none) 1040 nM.

On to “AACCUGAGGCAAAGCUUUAGGUGUACAUGAGGAUCACCCAUGUAGGAUAUGGUAAGCAAAGCUUACCAGAAGGACAUAAUGAUG [Mat - Exclusion NG 3 - Mod of JL - D48] (Eterna round: R96, puzzle: Exclusion NG 3)”, for which the “apparent KD of MS2 coat protein” value runs as follows: (input ligand: FMN 200 uM) 134 nM; under setting [4], 70.1 nM; (input ligand: none) 90.2 nM.

With “UUCUAUUCAGGAUAUACAUGAGGAUCACCCAUGUGAUUUGCCUCGCGGAAGACUAGACGUAGAAGGGAGUCCCU [Eternabot (L2) Solution 7] (Eterna round: R97, puzzle: Exclusion 3)”, the “apparent KD of MS2 coat protein” value (input ligand: FMN 200 uM) turned out to be 91.3 nM and the “apparent KD of MS2 coat protein” value (input ligand: none) turned out to be 111 nM.
